Results taken from the supplement of paper PMC9170038.

Tested on: MS2 coat protein
Assay: apparent KD of MS2 coat protein; designed switch direction (-1 OFF switch, 1 ON switch): -1; higher = weaker reporter binding
Method in brief: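 Designed RNA switches sharing common flanks were transcribed on Illumina chips by stalled E. coli RNA polymerase. They were titrated with SNAP-549-labelled MS2 coat protein, from 0.7 or 1.5 nM doubling to 3 µM, in Tris-HCl pH 7.5 buffer with KCl, MgCl2, BSA, DTT, tRNA and Tween-20. Titrations ran without input, with 200 uM small-molecule ligand, or with an oligonucleotide input. The apparent KD of each design is the median over its clusters, after curve-fitting of normalised cluster fluorescence.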

[1] = Eterna round: R95, input ligand: microRNA oligo, concentration not stated
[2] = input ligand: microRNA oligo, concentration not stated
[3] = Eterna round: R95, input ligand: FMN 200 uM
[4] = Eterna round: R95, input ligand: none

Sequence | apparent KD of MS2 coat protein [1] | apparent KD of MS2 coat protein (input ligand: FMN 200 uM) | apparent KD of MS2 coat protein (input ligand: none) | apparent KD of MS2 coat protein [2] | apparent KD of MS2 coat protein [3] | apparent KD of MS2 coat protein [4]
GGUGAGAGCAAGGAUAUGCAGAAGUGAGAAAGUGCAGAAGGUGCUACAUGAGGAUCACCCAUGUUGGAUGUGUU [JR_E6_Sub015] (puzzle: Exclusion 6) | 34.2 nM |  |  |  |  | 
AAUUAGUAUGUGAGGAUAUUGAUGUAAUGACGGUUUAAGAAGGCACAUGAGGAUCACCCAUGUAAAUGAUCACG [JR_BMEx4_Sub008] (Eterna round: R97, puzzle: Brourd's mod of Exclusion 4) |  | 74.4 nM | 37.7 nM |  |  | 
ACAUGAGGAUCACCCAUGUACAGGGUUUAGUUUCAUCGUUUGAAGGAUAUACUCCGUUAGUUGUUGUAGAAGGUCACAUUUUGG [JR_ExcNG3_Sub005] (Eterna round: R96, puzzle: Exclusion NG 3) |  | 167 nM | 142 nM | 89.2 nM |  | 
AGACAGUCAGGAUAUACAUGAGGAUCACCCAUGUUGAGAUGAGAAAGGGCAGGAAGAGGUAGAAGGGACGAGAG [JR_Exclu3_Sub036] (puzzle: Exclusion 3) | 24.7 nM |  |  |  | 31 nM | 30.4 nM
CUGCUCCGUGUAGGAUAUGCAUAUUCCCAUUAUGCAGAAGGACAUGAGGAUCACCCAUGUAUGUUAUUAUCAUGUGUUGCAUGC [Design 10] (Eterna round: R96, puzzle: Exclusion NG 1) |  | 146 nM | 34.3 nM | 35.2 nM |  | 
AUAAGAAAGGCAGGAUAUUGUGCACCCUAGUGACAAGAAGGGCCAGGGUGUGCGCUCCACAUGAGGAUCACCCAUGUUAGAAAG [Berimate] (Eterna round: R96, puzzle: Exclusion NG 1) |  | 26.4 nM | 29.3 nM | 27 nM |  | 
CUCGUGCAGCUUUGCUGUACGAGUACAUGAGGAUCACCCAUGUAGGAUAUGGUACGCUUUGCGUGCUAGAAGGAUAUGUGUAGG [JL EXNG3 1.38] (Eterna round: R96, puzzle: Exclusion NG 3) |  | 44.1 nM | 31.3 nM | 18.4 nM |  | 
AUUAUAUAGACAGGAUAUAGAAUAUUAUUUUAACAUGAGGAUCACCCAUGUAACCUUAUGUGUAGCUAGAAGGGUCAUUUAUUA [Title] (Eterna round: R96, puzzle: Exclusion NG 2) |  |  |  | 77.4 nM |  | 
GAGGAGCAAGGAUAUACGAGGAGAGGGAAGAGAGGAGAGAGACAUGAGGAUCACCCAUGUAGAAGGUGCAAGGA [JR_Exclu2_Sub092] (puzzle: Exclusion 2) | 35.4 nM |  |  |  | 46 nM | 43.8 nM
GCACGACAUGAGGAUCACCCAUGUGAGGAUAUUUAGACGCCUGUGAAUGCAGCCAUUUAGAGAAGGCAUUGGGU [Eternabot (L1) Solution 99] (Eterna round: R97, puzzle: Exclusion 1) |  | 129 nM | 43.9 nM |  |  | 
AACAGUCUGGAGGAUAUGCUGGAUAAAUAUCUGGCAGAAGGCUGGACAUGAGGAUCACCCAUGUAAAUACUACC [Omei Ex6 A2b] (Eterna round: R97, puzzle: Exclusion 6) |  | 54.5 nM | 24.9 nM |  |  | 
AGUUGUUGUUUCCGUUCUUACAUGAGGAUCACCCAUGUUUCUUGUCGUGCUCGCGUUGCUCGUCUGACUACCUGUUG [salish99_TOv1_r3_067] (puzzle: Sensor v3, turn-off variant 1) | 40.3 nM |  |  |  | 52.5 nM | 68.1 nM
UUAAAUCAUGUAGGAUAUGCGUGGCGAAGCUAUGCAGAAGGACAUGAGGAUCACCCAUGUGCUUCCGUCUGCGUACAGAUGGUA [JL ENG1 1.13] (Eterna round: R96, puzzle: Exclusion NG 1) |  | 315 nM | 62.5 nM | 52.7 nM |  | 
UAUUAGCAAGCGAGUGGGUACAUGAGGAUCACCCAUGUGCUCGUCUUAUAAGGUACUGUGACGAAAGUCACGGUACC [Eli 91 v33] (Eterna round: R97, puzzle: Sensor, turn-off variant 1) |  | 16.1 nM | 13.4 nM |  |  | 
AGUAGUAGUGUCCGAUCCUACAUGAGGAUCACCCAUGUAGCUAGACGUGCACGCGAUGCUCGUCAGACUACCAGAUG [salish99_TOv1_r3_046] (puzzle: Sensor v3, turn-off variant 1) | 88.7 nM |  |  |  | 83.7 nM | 129 nM
GGGUGCAGGCUGAGGUCCUACAUGAGGAUCACCCAUGUGGUCCGGUGACGUGAGUCGCCGGACUUGGCUCGUCUUGU [salish99_S_TOV1_R5_011] (Eterna round: R97, puzzle: Sensor, turn-off variant 1) |  | 42.2 nM | 52.1 nM |  |  | 
UUUUUUGGGCAAGGAUAUCCUGUGCGGUUCCGGCUCGUGUCUGUCACAUGAGGAUCACCCAUGUGGGAGAAGGUGCCUGCGGUU [Design 84] (Eterna round: R96, puzzle: Exclusion NG 2) |  | 15.1 nM | 15.4 nM | 10.8 nM |  | 

Sequence | apparent KD of MS2 coat protein [1] | apparent KD of MS2 coat protein (input ligand: FMN 200 uM) | apparent KD of MS2 coat protein (input ligand: none) | apparent KD of MS2 coat protein [2] | apparent KD of MS2 coat protein [3] | apparent KD of MS2 coat protein [4]
UCGGGUAGAGGAUAUACAUAGAAAUAGAUUCAUGUAAAACUACAUGAGGAUCACCCAUGUAGAAGGCUAUCCGU [Mat - Exclusion 2 - JL Mod - D56] (Eterna round: R97, puzzle: Exclusion 2) |  | 164 nM | 27.2 nM |  |  | 
ACAUGUAUUGCAGGAUAUGGGACACAUGAGGAUCACCCAUGUGACUACAUGUAAUGCCACGGGUCUCAGAAGGGUAUGUACAUG [Ex NG2 #42] (Eterna round: R96, puzzle: Exclusion NG 2) |  | 81.5 nM | 31.3 nM | 22.9 nM |  | 
GUGGGUUACAUGAGGAUCACCCAUGUAUAGUGGGAAGAGAUAUAGGAUAUAAUGUAAAAAUUAUAUUAGAAGGAUAGAGACUAG [AK ExNG3-1.3] (Eterna round: R96, puzzle: Exclusion NG 3) |  | 344 nM | 553 nM | 135 nM |  | 
UCAUAACAUGAGGAUCACCCAUGUGAGGAUAUGAUACUAUGUACUUCGGUACAUAGUAUCAGAAGGCACAUGCU [Brourd's Ex1-3: 11 (nt 72 G)] (puzzle: Exclusion 1) | 127 nM |  |  |  | 34.8 nM | 127 nM
UCCGCGCGCUUGCGCGCGGACAUGAGGAUCACCCAUGUCGGGCUUUUUGCUCGUUUUGUUGCGCGCGUUCGCGCGCG [Revision to Olbi_3 by Sunset] (Eterna round: R97, puzzle: Sensor, turn-off variant 1) |  | 89.1 nM | 101 nM |  |  | 
UACGUGUCAGGAUAUGCGUUGGUACAGAAGUAUGGCCAACGGCAGAAGGGACAUGAGGAUCACCCAUGUCGUCG [Eternabot (L1) Solution 60] (Eterna round: R97, puzzle: Exclusion 4) |  | 139 nM | 26.8 nM |  |  | 
ACAAGCUUUUUGUUCGUCUUAUACACUCCUAAUAAGACAACAUGAGGAUCACCCAUGUAACAAAGACGAACUCAUGU [Sesor Array 8 - Jieux - Sensor v3, turn-off variant 2] (puzzle: Sensor v3, turn-off variant 2) | 257 nM |  |  |  | 22.4 nM | 19.9 nM
UAACUUCUUGUAAGGAUAUUGGCGCGAAAGCGCACCGAGAAGGUACAUGAGGAUCACCCAUGUGAAAUAAGAAU [Mod of Zala 13 - Jieux - Brourd's Mod of Exclusion 4] (Eterna round: R97, puzzle: Brourd's mod of Exclusion 4) |  | 47.5 nM | 27.2 nM |  |  | 
UUGCAGUCAUCAGGAUAUAGUAUUACGGCCAUUUAUAUUUUCAUACAUGAGGAUCACCCAUGUCGCUAGAAGGGAUUAUCGAUU [Exclusion NG 2] (Eterna round: R96, puzzle: Exclusion NG 2) |  |  |  | 34.5 nM |  | 
GGUUGGCGAGGAUAUACAUGAGGAUCACCCAUGUGAGAGAAAGAAGUGAGAACGAAAAGUAGAAGGCGCUGACG [salish99_ex3_r3_058] (puzzle: Exclusion 3) | 65.8 nM |  |  |  | 48.1 nM | 66.1 nM
CUCGCUGUAGGAUAUACAUAUGUCCUGUCAGCCGCGGCAGAACAUGAGGAUCACCCAUGUAGAAGGAUAGAGAG [Eternabot (Original) Solution 34] (Eterna round: R97, puzzle: Exclusion 2) |  | 48.3 nM | 26.7 nM |  |  | 
AGUUGGCGAGGAUAUACAUGAGGAUCACCCAUGUGAGAGAUACUAGUGAGGUCGAUGAGUAGAAGGCGCUGACA [Mat X3R4 m18] (Eterna round: R97, puzzle: Exclusion 3) |  | 186 nM | 142 nM |  |  | 
AAUAACAAGCAGGUCCUAAACAUGAGGAUCACCCAUGUGCUCGUCUUGUAAAGUACUAUCACGAAAGUGAUAGUACA [Sensor 3, v1 - 60] (puzzle: Sensor v3, turn-off variant 1) | 297 nM |  |  |  | 26.8 nM | 28.3 nM
UAUUAGUAAGGAUAUGAGCCGUAGGACGAAAGUCCUACGGCUCAGAAGGUACAUGAGGAUCACCCAUGUUCAUU [Mod of Fisker 5 - Jieux - Exclusion 4] (Eterna round: R97, puzzle: Exclusion 4) |  | 17.7 nM | 15.9 nM |  |  | 
ACACCUCACGUCAGGAUAUCUAUCUCGAGUGAGGAAGAGAAGGGACAUGAGGAUCACCCAUGUAUAGAAAGAAU [Usissodi] (Eterna round: R97, puzzle: Brourd's mod of Exclusion 4) |  | 125 nM | 27.2 nM |  |  | 
GUUAACGAUCAGGAUAUAUCAAAUCAUAGCUUGAUAGAAGGGAUCACAUGAGGAUCACCCAUGUGAUCUUCUUU [jl-ex6-4.14 ViennaUCT mod] (Eterna round: R97, puzzle: Exclusion 6) |  | 15.3 nM | 11.7 nM |  |  | 
